Laboratory results: patent CN105061596A (JIANGSU NOVOMAB BIOPHARMACEUTICAL INC, dated 2015)

Legend:
Blys [1] = molecular target: T1, Blys (human, UniProt Q9Y275 134-285, limits assumed); assay: SPR, Biacore T200, antibody captured by goat anti-human IgG on a CM5 chip, 300 nM BLYS as analyte
T1 construct: Unlabelled Blys as used as the analyte in Biacore (300 nM) and in the mouse splenocyte proliferation assay (3 ng/ml); also called BAFF; B淋巴细胞刺激因子

Blys [2] = molecular target: T1, Blys; assay: cell-based or functional assay
Blys-His融合蛋白(含6×His标签) = molecular target: T2, Blys-His融合蛋白(含6×His标签) (human, UniProt Q9Y275 134-285); assay: ELISA, Blys-His coated, 1:4 serial dilutions of antibody, mouse anti-human IgG-HRP
T2 construct: Expressed in CHO-K1 cells and purified on a Ni column; The background says that Blys acts as a homotrimer and that residues 133-285 are the main functional region; also called 重组人BLYS; not shown: 6×His tag

B1: Belimumab (antibody, V domains shown)
VH: QVQLQQSGAEVKKPGSSVRVSCKASGGTFNNNAINWVRQAPGQGLEWMGGIIPMFGTAKYSQNFQGRVAITADESTGTASMELSSLRSEDTAVYYCARSRDLLLFPHHALSPWGRGTMVTVSS
VL: SSELTQDPAVSVALGQTVRVTCQGDSLRSYYASWYQQKPGQAPVLVIYGKNNRPSGIPDRFSGSSSGNTASLTITGAQAEDEADYYCSSRDSSGNHWVFGGGTELTVLG
- Kd (Blys [1]): 1.37 nM
- 抑制Blys刺激的鼠脾细胞增殖 IC50 (Blys [2]): 8.25 ng/mL

B2: NMB01 (antibody, V domains shown)
VH: EVQLVESGGGLVQPGGSLRLSCAASGFTFSTFGMNWVRQAPGKGLEWVSYISSGSSTIYYADTVKGRFTISRDNAKNSLYLQMNSLRAEDTAVYYCARLGDPLLRPKGNAMDYWGQGTLVTVSS
VL: DIQMTQSPSSLSASVGDRVTITCLASQTIGTWLAWYQQKPGKAPKLLIYAATRKADGVPSRFSGSGSGTDFTLTISSLQPEDFATYYCQQLYSSPWTFGGGTKVEIK
- EC50 (Blys-His融合蛋白(含6×His标签)): 0.0292 nM
